# Reference: patent US20260078398A1, “PLANTS GENETICALLY ENGINEERED FOR INCREASED WATER USE EFFICIENCY AND CARBON INTAKE AND METHODS FOR MAKING AND USING THEM” (The Regents of the University of California, priority 2022, published 2026)
# T1: His-HT1 (recombinant Arabidopsis HT1 protein kinase, wild type, with His tag)
# T1 chain: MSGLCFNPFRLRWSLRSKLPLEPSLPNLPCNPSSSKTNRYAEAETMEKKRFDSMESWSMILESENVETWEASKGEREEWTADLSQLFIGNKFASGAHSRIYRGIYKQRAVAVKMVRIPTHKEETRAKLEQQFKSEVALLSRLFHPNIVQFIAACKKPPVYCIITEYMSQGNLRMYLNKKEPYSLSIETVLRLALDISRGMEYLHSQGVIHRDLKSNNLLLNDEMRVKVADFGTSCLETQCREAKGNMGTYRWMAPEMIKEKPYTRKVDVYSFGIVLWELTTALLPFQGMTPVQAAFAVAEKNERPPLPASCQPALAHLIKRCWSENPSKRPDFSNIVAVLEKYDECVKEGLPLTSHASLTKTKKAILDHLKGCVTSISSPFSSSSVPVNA
# Tests used:
# CBC1 = test: HT1-dependent CBC1 kinase activation, in vitro phosphorylation and in-gel kinase assays; assay type: biochemical, Arabidopsis; settings: kinase inactive isoforms, histone as substrate
# Source text: A previous study reported that the HT1 kinase phosphorylates the CBC1 kinase in vitro (13). Whether this phosphorylation of CBC1 affects CBC1 activity remains unknown. We confirmed CBC1 phosphorylation by HT1 using recombinant His-HT1 and GST-CBC1 proteins by in vitro phosphorylation assays using radioactive ^32P-ATP (FIG. 5). Moreover, phosphorylation levels of histone, an artificial kinase substrate, were increased at the same time. […] In-gel kinase assays were pursued to test this hypothesis and provide direct evidence of HT1-dependent CBC1 kinase activation (FIG. 1A). […] We identified in vitro phosphorylation sites in CBC1 using mass spectrometry by analyzing recombinant CBC1 protein in the presence or absence of HT1 (FIG. 1C). We found two HT1-dependent phosphorylation sites (Thr-256 and Ser-280) that lie within or near the activation-loop of CBC1.
# FIG. 1. […] Histone was used as an artificial phosphorylation substrate of CBC1. • (C) Recombinant CBC1 proteins were incubated with or without HT1 and ATP, and CBC1 phosphorylation sites were identified by mass spectrometry. The red fonts indicate HT1-dependent phosphorylation sites. CBC1 autophosphorylation sites detected without HT1 addition are labeled in black fonts. […] CBB gels show loading controls.
# MPK4 and HT1 = test: in vitro pull-down assay, His-HT1 with GST-MPK4; assay type: binding, Arabidopsis; settings: pull-down with or without 20 mM NaHCO3
# Protocol: We therefore investigated a possible binding between MPK4 and HT1 and the effect of HCO3^−.
# FIG. 4. […] CO2 concentration changes were applied as indicated on top (p.p.m.). n=6 experiments, error bars show ±SEM. • (J) Model of plant stomatal CO2 sensor and signaling (see text).
# FIG. 6. […] Precipitated proteins were washed with buffers supplemented with NaHCO3 at the indicated concentrations (0, 2 or 20 mM). See FIG. 4d for an independent experiment. To control for effects of Na^+, 20 mM NaCl (0 mM NaHCO3) for lanes 1 and 4 were included in the buffers; and 18 mM NaCl (2 mM NaHCO3) for lane 3 were included in buffer.
# [1] = tested on: MPK4/12, HT1 and CBC1 recombinant proteins; test: in vitro phosphorylation assay: NaHCO3-dependent down-regulation of HT1-mediated CBC1 phosphorylation; assay type: biochemical, Arabidopsis; settings: isoform replaces wild type protein or is added; 20 mM NaHCO3 vs NaCl control, 30 min
# Protocol: We tested whether this HT1-mediated activation of CBC1 is inhibited by CO2/bicarbonate by adding NaHCO3 in in vitro phosphorylation reactions. […]
# FIG. 2. […] Histone was used as an artificial protein kinase substrate. • (B) MPK4, HT1 and CBC1 proteins were incubated with NaHCO3 at the indicated concentrations for 30 min, and in vitro phosphorylation assays were performed. • (C) CBC1 band intensities as shown in (B) were measured using IMAGEJ™, n=4 experiments, error bars show ±S.D. • (D) MPK4, HT1 and CBC1 proteins were incubated in reaction buffers adjusted at different pH (6.5 to 8.5) for 30 min, and in vitro phosphorylation assays were performed. • (E) CBC1 band intensities and the density-ratios of ‘+NaHCO3’ to ‘—NaHCO3’ (=+NaCl controls) for each pH condition
# FIG. 3. […] Ambient CO2 concentrations are indicated by the top bars. n=7 experiments, error bars show ±SEM. • (C) Recombinant HT1 (wild type, HT1-G89R or HT1-R173Q) and CBC1 proteins were incubated with MPK4 in the presence or absence of 20 mM NaHCO3 or 20 mM NaCl (−controls) for 30 min, and in vitro phosphorylation assays were performed. • (D) Recombinant MPK12, CBC1 and HT1 (WT or R102K) proteins were incubated with or without 20 mM NaHCO3 or 20 mM NaCl (−controls) for 30 min, and in vitro phosphorylation assays were performed. Histone was used as an artificial kinase substrate. • (E) HT1 (WT or A109V) proteins were used for in vitro phosphorylation assays. Proteins were incubated with or without 20 mM NaHCO3 or 20 mM NaCl (−controls) for 30 min. • (F) Stomatal conductances were analyzed using intact plants of Arabidopsis (Col-0 (WT), cbc1 cbc2, ht1-A109V and cbc1 cbc2 ht1-A109V). CO2 concentration changes were applied as indicated on top (p.p.m.). […]
# [2] = target: T1, His-HT1 (recombinant Arabidopsis HT1 …)
molecule,measurement,setting,value
HT1-K113W: kinase inactive HT1 mutant (protein) MSGLCFNPFRLRWSLRSKLPLEPSLPNLPCNPSSSKTNRYAEAETMEKKRFDSMESWSMILESENVETWEASKGEREEWTADLSQLFIGNKFASGAHSRIYRGIYKQRAVAVWMVRIPTHKEETRAKLEQQFKSEVALLSRLFHPNIVQFIAACKKPPVYCIITEYMSQGNLRMYLNKKEPYSLSIETVLRLALDISRGMEYLHSQGVIHRDLKSNNLLLNDEMRVKVADFGTSCLETQCREAKGNMGTYRWMAPEMIKEKPYTRKVDVYSFGIVLWELTTALLPFQGMTPVQAAFAVAEKNERPPLPASCQPALAHLIKRCWSENPSKRPDFSNIVAVLEKYDECVKEGLPLTSHASLTKTKKAILDHLKGCVTSISSPFSSSSVPVNA,HT1-dependent activation/phosphorylation of CBC1,CBC1,did not activate CBC1
HT1-G89R: recombinant HT1 protein kinase isoform with dominant G89R mutation (protein) MSGLCFNPFRLRWSLRSKLPLEPSLPNLPCNPSSSKTNRYAEAETMEKKRFDSMESWSMILESENVETWEASKGEREEWTADLSQLFIRNKFASGAHSRIYRGIYKQRAVAVKMVRIPTHKEETRAKLEQQFKSEVALLSRLFHPNIVQFIAACKKPPVYCIITEYMSQGNLRMYLNKKEPYSLSIETVLRLALDISRGMEYLHSQGVIHRDLKSNNLLLNDEMRVKVADFGTSCLETQCREAKGNMGTYRWMAPEMIKEKPYTRKVDVYSFGIVLWELTTALLPFQGMTPVQAAFAVAEKNERPPLPASCQPALAHLIKRCWSENPSKRPDFSNIVAVLEKYDECVKEGLPLTSHASLTKTKKAILDHLKGCVTSISSPFSSSSVPVNA,HCO3- dependent binding of HT1 isoform with MPK4,MPK4 and HT1,disrupts the HCO3^−-dependent binding with MPK4
same,NaHCO3-mediated down-regulation of CBC1 phosphorylation/activity with the protein isoform in the reaction,[1],no NaHCO3-mediated inhibition of CBC1 activity
MPK12 (recombinant Arabidopsis MAP kinase MPK12) (protein) MSGESSSGSTEHCIKVVPTHGGRYVQYNVYGQLFEVSRKYVPPIRPIGRGACGIVCAAVNSVTGEKVAIKKIGNAFDNIIDAKRTLREIKLLRHMDHENVITIKDIVRPPQRDIFNDVYIVYELMDTDLQRILRSNQTLTSDQCRFLVYQLLRGLKYVHSANILHRDLRPSNVLLNSKNELKIGDFGLARTTSDTDFMTEYVVTRWYRAPELLLNCSEYTAAIDIWSVGCILGEIMTGQPLFPGKDYVHQLRLITELVGSPDNSSLGFLRSDNARRYVRQLPRYPKQQFAARFPKMPTTAIDLLERMLVFDPNRRISVDEALGHAYLSPHHDVAKEPVCSTPFSFDFEHPSCTEEHIKELIYKESVKFNPDH,"CBC1 and histone phosphorylation in vitro (HT1 + CBC1 + MPK12, 20 mM NaHCO3; FIG. 2A, n>6)",[2],"when MPK4 or MPK12 were added to the reaction, we found that the addition of NaHCO3, but not NaCl, inhibited both CBC1 phosphorylation and histone phosphorylation in vitro"
same,"HT1 kinase activity, in vitro phosphorylation assay with or without 20 mM NaHCO3 (FIG. 4B, n=3)",[2],"HT1 kinase activity was inhibited in response to NaHCO3, only in the presence of MPK12"
MPK12-K70R: kinase inactive MPK12 isoform (protein) MSGESSSGSTEHCIKVVPTHGGRYVQYNVYGQLFEVSRKYVPPIRPIGRGACGIVCAAVNSVTGEKVAIRKIGNAFDNIIDAKRTLREIKLLRHMDHENVITIKDIVRPPQRDIFNDVYIVYELMDTDLQRILRSNQTLTSDQCRFLVYQLLRGLKYVHSANILHRDLRPSNVLLNSKNELKIGDFGLARTTSDTDFMTEYVVTRWYRAPELLLNCSEYTAAIDIWSVGCILGEIMTGQPLFPGKDYVHQLRLITELVGSPDNSSLGFLRSDNARRYVRQLPRYPKQQFAARFPKMPTTAIDLLERMLVFDPNRRISVDEALGHAYLSPHHDVAKEPVCSTPFSFDFEHPSCTEEHIKELIYKESVKFNPDH,NaHCO3-mediated down-regulation of CBC1 phosphorylation/activity with the protein isoform in the reaction,[1],retained the ability to mediate CO2/bicarbonate-induced CBC1 inhibition
"His-BdMPK5 (D90N), chill1 variant isoform (protein) MRMEGGGAGPAAAAAAGGAHGLGEAQIKGTLTHGGRYVQYNVYGNLFEVSAKYVPPIRPVGRGACGIICAAINVQTREEVAIKKIGNAFNNQIDAKRTLREVKLLRHMNHENVISIKDIIRPPRRENFNDVYIVYELMDTDLHHLLRSNQPLTDDHCQYFLYQVLRGLKYVHSANVLHRDLRPSNLLLNAKCDLKIGDFGLARTTTETDFMMEYVVTRWYRAPELLLNCSEYTGAIDMWSVGCILGEIATREPLFPGKDYVHQLRLITELLGSPDDTSLGFLRSDNARRYVRSLPQYPKQQFRSRFPNMSSGAMDLLERMLVFDPNKRITVDEALCHPYLASLHEINDEPVCPAPFSFDFEQPSFTEEDIKELIWRESVKFNPEPIH","CBC1 phosphorylation, in vitro phosphorylation assay with GST-CBC1, His-HT1 and His-BdMPK5 (D90N), with or without 20 mM NaHCO3 (n=2)",[2],The BdMPK5-D90N variant protein abrogated the high CO2/bicarbonate-mediated downregulation of CBC1 phosphorylation
"His-BdMPK5 (WT), recombinant Brachypodium distachyon BdMPK5 (protein) MRMEGGGAGPAAAAAAGGAHGLGEAQIKGTLTHGGRYVQYNVYGNLFEVSAKYVPPIRPVGRGACGIICAAINVQTREEVAIKKIGNAFDNQIDAKRTLREVKLLRHMNHENVISIKDIIRPPRRENFNDVYIVYELMDTDLHHLLRSNQPLTDDHCQYFLYQVLRGLKYVHSANVLHRDLRPSNLLLNAKCDLKIGDFGLARTTTETDFMMEYVVTRWYRAPELLLNCSEYTGAIDMWSVGCILGEIATREPLFPGKDYVHQLRLITELLGSPDDTSLGFLRSDNARRYVRSLPQYPKQQFRSRFPNMSSGAMDLLERMLVFDPNKRITVDEALCHPYLASLHEINDEPVCPAPFSFDFEQPSFTEEDIKELIWRESVKFNPEPIH","CBC1 protein kinase activity, in vitro phosphorylation assay with GST-CBC1, His-HT1 and His-BdMPK5, with or without 20 mM NaHCO3 (n=2)",[2],HT1 and CBC1 together with the BdMPK5 protein showed a high CO2/bicarbonate-induced down-regulation of the CBC1 protein kinase activity
"CBC1-D253A: kinase inactive CBC1 isoform (protein, UniProt Q9SSA4 1-411, looked up, variant D253A) Serine/threonine-protein …: MKEKAESGGGVGYVRADQIDLKSLDEQLQRHLSKAWTMEKRKSLSDGEDNVNNTRHNQNNFGHRQLVFQRPLLGGGYSNNNNSSKNDIIRSTEVEKSRREWEIDPSKLIIKSVIARGTFGTVHRGIYDGQDVAVKLLDWGEEGHRSDAEIASLRAAFTQEVAVWHKLDHPNVTKFIGAAMGTSEMSIQTENGQMGMPSNVCCVVVEYCPGGALKSFLIKTRRRKLAFKVVIQLSLDLARGLSYLHSQKIVHRAVKTENMLLDKSRTLKIADFGVARLEASNPNDMTGETGTLGYMAPEVLNGSPYNRKCDVYSFGICLWEIYCCDMPYPDLSFSEVTSAVVRQNLRPEIPRCCPSSLANVMKRCWDANPEKRPEMEEVVAMLEAIDTSKGGGMIPPDQQQGCFCFRRHRGP",HT1-dependent activation/phosphorylation of CBC1,CBC1,reduced phosphorylation level compared to wild type CBC1
